What follows are binders tested against T1, human PD-L1-Fc (R&D Systems) (human, UniProt Q9NZQ7 19-239) (assay: soluble Affimer ELISA).
T1 construct: Bought from R&D Systems; Biotinylated in-house for the phage selection; also called huPD-L1-Fc; human PD-L1-Fc antigen; not shown: Fc part of the bought fusion
T1 sequence (Q9NZQ7 19-239 limits assumed): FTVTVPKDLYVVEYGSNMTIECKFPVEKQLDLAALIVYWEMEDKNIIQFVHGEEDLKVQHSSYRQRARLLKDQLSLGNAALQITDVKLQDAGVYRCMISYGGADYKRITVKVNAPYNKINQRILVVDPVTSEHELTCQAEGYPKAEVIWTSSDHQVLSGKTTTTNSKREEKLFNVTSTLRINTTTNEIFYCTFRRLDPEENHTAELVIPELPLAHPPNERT

binding result	Binder
binds	Clone 143 (designed binder, His-tagged) MIPGGLSEAKPATPEIQEIVDKVKPQLEEKTGETYGKLEAVQYKTQVVDWPSHAKFWGTNYYIKVRAGDNKYMHLKVFKSLFLPDKDDPFEDLVLTGYQVDKNKDDELTGF
binds	Clone 128 (designed binder, His-tagged) MIPGGLSEAKPATPEIQEIVDKVKPQLEEKTGETYGKLEAVQYKTQVVPEVDKAEWWGTNYYIKVRAGDNKYMHLKVFKSLIRYGLRHEREDLVLTGYQVDKNKDDELTGF
binds	Clone 139 (designed binder, His-tagged) MIPGGLSEAKPATPEIQEIVDKVKPQLEEKTGETYGKLEAVQYKTQVVGLIQPPYAQGTNYYIKVRAGDNKYMHLKVFKSLGWQYIDLFHEDLVLTGYQVDKNKDDELTGF
binds	Clone 142 (designed binder, His-tagged) MIPGGLSEAKPATPEIQEIVDKVKPQLEEKTGETYGKLEAVQYKTQVVSWYKLWSYSGTNYYIKVRAGDNKYMHLKVFKSLFEGRHKDPEEDLVLTGYQVDKNKDDELTGF
binds	Clone 136 (designed binder, His-tagged) MIPGGLSEAKPATPEIQEIVDKVKPQLEEKTGETYGKLEAVQYKTQVVVLRWQWGYLGTNYYIKVRAGDNKYMHLKVFKSLQLLYEDNDEDLVLTGYQVDKNKDDELTGF
binds	Clone 124 (designed binder, His-tagged) MIPGGLSEAKPATPEIQEIVDKVKPQLEEKTGETYGKLEAVQYKTQVDQVLWEIFEHGTNYYIKVRAGDNKYMHLKVFKSLFHQWSPALHEDLVLTGYQVDKNKDDELTGF
binds	Clone 137 (designed binder, His-tagged) MIPGGLSEAKPATPEIQEIVDKVKPQLEEKTGETYGKLEAVQYKTQVVLWPLQPKNWGTNYYIKVRAGDNKYMHLKVFKSLGWNYLEAIAEDLVLTGYQVDKNKDDELTGF
binds	Clone 141 (designed binder, His-tagged) MIPGGLSEAKPATPEIQEIVDKVKPQLEEKTGETYGKLEAVQYKTQVVDLHTLKSGVGTNYYIKVRAGDNKYMHLKVFKSLYIKHHLWWIEDLVLTGYQVDKNKDDELTGF
binds	Clone 14 (designed binder, His-tagged) MIPGGLSEAKPATPEIQEIVDKVKPQLEEKTGETYGKLEAVQYKTQVVSFLVDPLHLGTNYYIKVRAGDNKYMHLKVFKSLRSFGGEWGWEDLVLTGYQVDKNKDDELTGF
binds	Clone 120 (designed binder, His-tagged) MIPGGLSEAKPATPEIQEIVDKVKPQLEEKTGETYGKLEAVQYKTQVDPEVSITRWQGTNYYIKVRAGDNKYMHLKVFKSLYETHGNIITEDLVLTGYQVDKNKDDELTGF
binds	Clone 127 (designed binder, His-tagged) MIPGGLSEAKPATPEIQEIVDKVKPQLEEKTGETYGKLEAVQYKTQVVTQAIPWREWGTNYYIKVRAGDNKYMHLKVFKSLIPEWPKDASEDLVLTGYQVDKNKDDELTGF
binds	Clone 133 (designed binder, His-tagged) MIPGGLSEAKPATPEIQEIVDKVKPQLEEKTGETYGKLEAVQYKTQVVLYSESRDYKGTNYYIKVRAGDNKYMHLKVFKSLHAYKGSIYREDLVLTGYQVDKNKDDELTGF
binds	Clone 16 (designed binder, His-tagged) MIPGGLSEAKPATPEIQEIVDKVKPQLEEKTGETYGKLEAVQYKTQVVHIQWPPWVEGTNYYIKVRAGDNKYMHLKVFKSLGWTSDNSNFEDLVLTGYQVDKNKDDELTGF
binds	Clone 161 (designed binder, His-tagged) MIPGGLSEAKPATPEIQEIVDKVKPQLEEKTGETYGKLEAVQYKTQVVVLERPPYVKGTNYYIKVRAGDNKYMHLKVFKSLNWEGEPSGVEDLVLTGYQVDKNKDDELTGF
binds	Clone 219 (designed binder, His-tagged) MIPGGLSEAKPATPEIQEIVDKVKPQLEEKTGETYGKLEAVQYKTQVVPLTIPPFVEGTNYYIKVRAGDNKYMHLKVFKSLGWQQVNDVKEDLVLTGYQVDKNKDDELTGF
binds	Clone 19 (designed binder, His-tagged) MIPGGLSEAKPATPEIQEIVDKVKPQLEEKTGETYGKLEAVQYKTQVVYRFGPPYVKGTNYYIKVRAGDNKYMHLKVFKSLGWNAFSSPAEDLVLTGYQVDKNKDDELTGF
binds	Clone 240 (designed binder, His-tagged) MIPGGLSEAKPATPEIQEIVDKVKPQLEEKTGETYGKLEAVQYKTQVVLLYQAPFVQGTNYYIKVRAGDNKYMHLKVFKSLGWDLEYSQKEDLVLTGYQVDKNKDDELTGF
binds	Clone 154 (designed binder, His-tagged) MIPGGLSEAKPATPEIQEIVDKVKPQLEEKTGETYGKLEAVQYKTQVVPQIGAPYVKGTNYYIKVRAGDNKYMHLKVFKSLGWNSNIGVLEDLVLTGYQVDKNKDDELTGF

binding result	Binder
binds	Clone 130 (designed binder, His-tagged) MIPGGLSEAKPATPEIQEIVDKVKPQLEEKTGETYGKLEAVQYKTQVVPQPEWNEWGVTNYYIKVRAGDNKYMHLKVFKSLIFWNEKLIREDLVLTGYQVDKNKDDELTGF
binds	Clone 134 (designed binder, His-tagged) MIPGGLSEAKPATPEIQEIVDKVKPQLEEKTGETYGKLEAVQYKTQVVFWFEDIQWLGTNYYIKVRAGDNKYMHLKVFKSLRFREDVDIREDLVLTGYQVDKNKDDELTGF
binds	Clone 176 (designed binder, His-tagged) MIPGGLSEAKPATPEIQEIVDKVKPQLEEKTGETYGKLEAVQYKTQVVFWYPEIGWLGTNYYIKVRAGDNKYMHLKVFKSLRSRYPNYTAEDLVLTGYQVDKNKDDELTGF
binds	Clone 162 (designed binder, His-tagged) MIPGGLSEAKPATPEIQEIVDKVKPQLEEKTGETYGKLEAVQYKTQVVFTFSSIGWWGTNYYIKVRAGDNKYMHLKVFKSLRQLLDKPRYEDLVLTGYQVDKNKDDELTGF
binds	Clone 29 (designed binder, His-tagged) MIPGGLSEAKPATPEIQEIVDKVKPQLEEKTGETYGKLEAVQYKTQVVFTFVDIHWYGTNYYIKVRAGDNKYMHLKVFKSLRKPKDRQYTEDLVLTGYQVDKNKDDELTGF
binds	Clone 126 (designed binder, His-tagged) MIPGGLSEAKPATPEIQEIVDKVKPQLEEKTGETYGKLEAVQYKTQVVYEPHHPYPWGTNYYIKVRAGDNKYMHLKVFKSLQYHPPYERFEDLVLTGYQVDKNKDDELTGF
binds	Clone 144 (designed binder, His-tagged) MIPGGLSEAKPATPEIQEIVDKVKPQLEEKTGETYGKLEAVQYKTQVVAYQSPPYHFGTNYYIKVRAGDNKYMHLKVFKSLRQIAGYIAIEDLVLTGYQVDKNKDDELTGF
binds	Clone 131 (designed binder, His-tagged) MIPGGLSEAKPATPEIQEIVDKVKPQLEEKTGETYGKLEAVQYKTQVVNQWEWPVDLGTNYYIKVRAGDNKYMHLKVFKSLKVYRTHHIFEDLVLTGYQVDKNKDDELTGF
binds	Clone 123 (designed binder, His-tagged) MIPGGLSEAKPATPEIQEIVDKVKPQLEEKTGETYGKLEAVQYKTQVDNLVYYQRDWGTNYYIKVRAGDNKYMHLKVFKSLEPGRWRWPKEDLVLTGYQVDKNKDDELTGF
binds	Clone 125 (designed binder, His-tagged) MIPGGLSEAKPATPEIQEIVDKVKPQLEEKTGETYGKLEAVQYKTQVVTRLHFPQYQGTNYYIKVRAGDNKYMHLKVFKSLEIEVNPYANEDLVLTGYQVDKNKDDELTGF
binds	Clone 13 (designed binder, His-tagged) MIPGGLSEAKPATPEIQEIVDKVKPQLEEKTGETYGKLEAVQYKTQVVLFREEKYNYGTNYYIKVRAGDNKYMHLKVFKSLAWGEVVSNAEDLVLTGYQVDKNKDDELTGF
binds	Clone 138 (designed binder, His-tagged) MIPGGLSEAKPATPEIQEIVDKVKPQLEEKTGETYGKLEAVQYKTQVVDNVRHGWLSGTNYYIKVRAGDNKYMHLKVFKSLFALLWSAYGEDLVLTGYQVDKNKDDELTGF
binds	Clone 140 (designed binder, His-tagged) MIPGGLSEAKPATPEIQEIVDKVKPQLEEKTGETYGKLEAVQYKTQVVRQVGVWAYEGTNYYIKVRAGDNKYMHLKVFKSLGRTVEGGRWEDLVLTGYQVDKNKDDELTGF
binds	Clone 174 (designed binder, His-tagged) MIPGGLSEAKPATPEIQEIVDKVKPQLEEKTGETYGKLEAVQYKTQVVRQVTIWHFEGTNYYIKVRAGDNKYMHLKVFKSLGRTEVEGSFEDLVLTGYQVDKNKDDELTGF
binds	Clone 132 (designed binder, His-tagged) MIPGGLSEAKPATPEIQEIVDKVKPQLEEKTGETYGKLEAVQYKTQVVERYHFPQFTGTNYYIKVRAGDNKYMHLKVFKSLNHDQVRWNLEDLVLTGYQVDKNKDDELTGF
binds	Clone 135 (designed binder, His-tagged) MIPGGLSEAKPATPEIQEIVDKVKPQLEEKTGETYGKLEAVQYKTQVVAVYPTFKYGTNYYIKVRAGDNKYMHLKVFKSLKVEYLDFITEDLVLTGYQVDKNKDDELTGF
binds	Clone 121 (designed binder, His-tagged) MIPGGLSEAKPATPEIQEIVDKVKPQLEEKTGETYGKLEAVQYKTQVDGNFAHERWQGTNYYIKVRAGDNKYMHLKVFKSLYIARDFDWTEDLVLTGYQVDKNKDDELTGF

From US20250243277A1 (AVACTA LIFE SCIENCES, published 2025)
